Data as given in patent publication US20040197862A1.

Each substance was assayed against HLA-DR2b (DRA, DRB1*1501), soluble, thrombin-cleaved DR/CLIP complex (human).

Row | Substance | IC50 [µM]
1 | HIV p24 (171-192) peptide | 0.9
2 | HIV p24 (161-182) peptide | 9
3 | HIV p24 (51-72) peptide | 10.8
4 | HIV p24 (191-212) peptide | 3
5 | HIV p24 (111-132) peptide | 10.8
6 | HIV p24 (1-22) peptide | 8

The substances below were run against HLA-DR1 (DRA, DRB1*0101), soluble, thrombin-cleaved DR/CLIP complex (human).

Row | Substance | IC50 [nM]
7 | HIV p24 (191-212) peptide | 1600
